Stoichiometry N data for 1 substance are collected here from paper doi:10.1101/2021.05.10.443397.

The target in the experiment is clamp-stabilised KoRV envelope (Env-clamp) (koala retrovirus (KoRV-A)). Kind of experiment: SEC + other: negative-stain electron microscopy.

By stoichiometry N is commonly meant the number of molecules, sites or subunits per partner or assembly. Take “clamp-stabilised KoRV envelope (Env-clamp)”: the stoichiometry N stood at 3.
